Assay results from US20170088602A1 (Bristol-Myers Squibb, published 2017).
Residue numbers refer to the chain shown, from its start. Numbers in names are those of the source.

T1: human myostatin (mature, recombinant; R&D Systems) (human, UniProt O14793 267-375)
T1 sequence: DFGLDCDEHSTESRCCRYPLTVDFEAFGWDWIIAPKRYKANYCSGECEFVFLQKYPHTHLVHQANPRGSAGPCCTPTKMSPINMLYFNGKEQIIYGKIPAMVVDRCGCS

T2: human Activin A (R&D Systems) (human, UniProt P08476 311-426)
T2 sequence (looked up): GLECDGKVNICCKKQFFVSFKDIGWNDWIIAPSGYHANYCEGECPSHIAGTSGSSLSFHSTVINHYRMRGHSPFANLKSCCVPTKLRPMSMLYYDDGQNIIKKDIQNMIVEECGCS

T3: human BMP-11 (GDF-11; R&D Systems) (human, UniProt O95390 299-407)
T3 sequence (looked up): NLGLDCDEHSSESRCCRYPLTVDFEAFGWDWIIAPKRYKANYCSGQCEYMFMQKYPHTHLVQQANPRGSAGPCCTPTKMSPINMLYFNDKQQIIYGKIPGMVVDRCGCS

B1: 3008_G01 (designed binder)
chain: MGVSDVPRDLEVVAATPTSLLISWSLPGPGHFHYYRITYGETGGNSPVQEFTVPGRGVTATISGLKPGVDYTITVYAVTVTANQPIIYKPISINYRTEIDKPSQHHHHHH
B2: 3116_A06 G84A (designed binder)
chain: MGVSDVPRDLEVVAATPTSLLISWSLPHQGKANYYRITYGETGGNSPVQEFTVPGRGVTATISGLKPGVDYTITVYAVTVTDTAYLKYKPISINYRTEIDKPSQHHHHHH
B3: 3008_G03 (designed binder)
chain: B1 chain with G28H, H31L, F32G, V80I, A82P, N83E, Q84T, P85I, I87V
B4: 3146_A08 (designed binder)
chain: B1 chain with G28N, H31N, F32A, A82D, N83T, Q84G, P85F, I87T
B5: 3116_A06 D82A (designed binder)
chain: B2 chain with D82A, A84G
B6: 3116_A06 K31A (designed binder)
chain: B2 chain with K31A, A84G
B7: 3116_C06 (designed binder)
chain: B1 chain with G28R, H31N, F32A, A82G, N83K, Q84D, P85V, I87K
B8: 3116_C01 (designed binder)
chain: B1 chain with G28N, H31I, F32A, V80L, A82G, N83S, Q84D, P85T, I87F
B9: 3116_A06 K87A (designed binder)
chain: B2 chain with A84G, K87A
B10: 3116_A06 G55A (designed binder)
chain: B2 chain with G55A, A84G
B11: 3116_A06 G57A (designed binder)
chain: B2 chain with G57A, A84G
B12: ATI-1275 [N-ethylmaleimide] (designed binder)
chain: MGVSDVPRDLEVVAATPTSLLISWYLPYPAHMNYYRITYGETGGNSPVQEFTVPGRGLTATISGLKPGVDYTITVYAVTLTKSQILHHRPISINYRTEGSGCHHHHHH
modifications: N-ethylmaleimide on the Cys of the EGSGC tail
notes: cysteine mutant of 2524_D09
B13: ATI-1277 [N-ethylmaleimide] (designed binder)
chain: B12 chain with Y25S, P29A, A30G, M32L, L58V, I85L, L86I, H88Y, R89M
modifications: N-ethylmaleimide on the Cys of the EGSGC tail
notes: cysteine mutant of 2525_D05
B14: ATI-1267 [N-ethylmaleimide] (designed binder)
chain: MGVSDVPRDLEVVAATPTSLLISWTLPHAGRAHYYRITYGETGGNSPVQEFTVPGRGVTATISGLKPGVDYTITVYAVTVTTTSVILYKPISINYRTEGSGCHHHHHH
modifications: N-ethylmaleimide on the Cys of the EGSGC tail
notes: cysteine mutant of 2525_D02
B15: 3115_E06 (designed binder)
chain: MGVSDVPRDLEVVAATPTSLLISWDAPAGLARYYRITYGETGGNSPVQEFTVVGRGNTATISGLKPGVDYTITVYAVTIFRDGPVTWDPISINYRTEIDKPSQHHHHHH
B16: 3116_H06 (designed binder)
chain: B15 chain with P84V, T86N, W87Y, D88G
B17: 3115_D04 (designed binder)
chain: B15 chain with A28R, V53F, N57T, F80D, P84T, V85R, T86S, W87F
B18: 3116_A07 (designed binder)
chain: B15 chain with A28K
B19: 3006_A10 (designed binder)
chain: B15 chain with A28G, V53I, N57S, F80D, P84V, V85N, T86H, W87F, D88A
B20: 2522_C09 (designed binder)
chain: MGVSDVPRDLEVVAATPTSLLISWEVPRGLARYYRITYGETGGNSPVQEFTVLGRGSTATISGLKPGVDYTITVYAVTVYRDGPLLLAPISINYRTEIDKPSQHHHHHH
B21: 2524_D09 (designed binder)
chain: MGVSDVPRDLEVVAATPTSLLISWYLPYPAHMNYYRITYGETGGNSPVQEFTVPGRGLTATISGLKPGVDYTITVYAVTLTKSQILHHRPISINYRTEIDKPSQHHHHHH
B22: 2524_H05 (designed binder)
chain: MGVSDVPRDLEVVAATPTSLLISWSLPYSGLANYYRITYGETGGNSPVQEFTVPGRGVTATISGLKPGVDYTITVYAVTLTHSNIIRYVPISINYRTEIDKPSQHHHHHH
B23: 2525_B01 (designed binder)
chain: B22 chain with S25T, Y28N, S29F, A32I, L80I, H82K, N84T, R87I, V89K
B24: 2525_D02 (designed binder)
chain: B2 chain with S25T, Q29A, K31R, N33H, D82T, A84S, Y85V, L86I, K87L
B25: 2987_H07 (designed binder)
chain: B2 chain with S25T, Q29A, K31R, N33H, D82T, A84K, Y85V, L86I, K87H
B26: 2525_F07 (designed binder)
chain: B21 chain with Y25S, P29A, L58V, K82R, I85V, L86I, H88Y, R89M

Columns and labels:
[1] = target: T1, human myostatin (mature, recombinant; …); experiment: cell-based or functional assay
[2] = target: T1, human myostatin (mature, recombinant; …); experiment: competitive HTRF (1889E01/myostatin/ActRIIb-Fc sandwich)
From the text: An HTRF assay was used to measure the binding affinities of anti-myostatin Adnectins to myostatin. […] The Eu-W 1024 labeled Streptavidin is used to bind biotinylated 1889E01. […] In the presence of a competitive Adnectin, the HTRF signal decreases.

[3] = target: T1, human myostatin (mature, recombinant; …); experiment: cell-based or functional assay; remark: listed apart in the source
[4] = target: T2, human Activin A (R&D Systems); experiment: cell-based or functional assay
[5] = target: T3, human BMP-11 (GDF-11; R&D Systems); experiment: cell-based or functional assay
[6] = target: T1, human myostatin (mature, recombinant; …); experiment: cell-based or functional assay; remark: listed apart in the source
[7] = target: T1, human myostatin (mature, recombinant; …); experiment: competitive HTRF, alanine scan
[8] = target: T1, human myostatin (mature, recombinant; …); experiment: SPR format A, 25C
From the text: (§1) Anti-human Fc antibody (Biacore/GE) was immobilized on a Biacore CM5 chip via NHS/EDC coupling according to the manufacturer's instructions. […] A concentration range of anti-myostatin Adnectin was applied across all flow cells in HBSP running buffer. Regeneration of the chip surface between cycles was accomplished with two 30 second pulses of 3M MgCl₂. Kinetic traces of reference-subtracted sensorgrams were fit to a 1:1 binding model using Biaevaluation software.

[9] = target: T3, human BMP-11 (GDF-11; R&D Systems); experiment: SPR format A, 25C
From the text: as §1

Binder | pSmad2 % inhibition at 10 nM [1] [%] | IC50 [2] [nM] | ARE-luciferase IC50 [3] [nM] | ARE-luciferase IC50 [4] [nM] | ARE-luciferase IC50 [5] [nM] | Myostatin ARE-luc IC50 [6] [nM] | IC50 [7] [nM] | pSmad2 IC50, 4-point [1] | Kd [8] [nM] | Kd [9] [nM] | pSmad2 IC50, 12-point [1] [nM]
B1 | 98 | 0.11 | 0.03 | > 2000 | 0.31 | – | – | – | – | – | –
B2 | – | – | – | – | – | 3.6 | 2 | – | – | – | –
B3 | 91 | 0.13 | 0.09 | > 2000 | 1.3 | – | – | – | – | – | –
B4 | – | 0.26 | 0.7 | > 1000 | 48 | – | – | 0.78 nM | – | – | –
B5 | – | – | – | – | – | 1.8 | 0.8 | – | – | – | –
B6 | – | – | – | – | – | 2.2 | 0.6 | – | – | – | –
B7 | – | 0.18 | 0.14 | > 1000 | 8.9 | – | – | 0.73 nM | – | – | –
B8 | – | 0.35 | 0.1 | 1000 | 6.7 | – | – | 0.26 nM | – | – | –
B9 | – | – | – | – | – | 2 | 0.8 | – | – | – | –
B10 | – | – | – | – | – | > 100 | > 100 | – | – | – | –
B11 | – | – | – | – | – | > 100 | > 100 | – | – | – | –
B12 | – | 0.19 | 0.03 | 19 | 0.14 | – | – | – | 0.15 | 0.15 | –
B13 | – | 0.38 | 0.14 | 2000 | 1.18 | – | – | – | 0.16 | 0.14 | –
B14 | – | 0.12 | 0.06 | 644 | 0.5 | – | – | – | 0.057 | 0.065 | –
B15 | – | 0.14 | 0.07 | > 1000 | 2 | – | – | 60 pM | – | – | –
B16 | – | 0.13 | 0.1 | > 1000 | 1.6 | – | – | 60 pM | – | – | –
B17 | – | 0.2 | 0.16 | > 1000 | 3.6 | – | – | 60 pM | – | – | –
B18 | – | 0.11 | 0.04 | > 1000 | 0.5 | – | – | 60 pM | – | – | –
B19 | 51 | 0.15 | 0.08 | > 2000 | 2 | – | – | – | – | – | –
B20 | – | – | 0.06 | 1000 | 1.6 | – | – | – | 0.51 | 0.45 | 0.13
B21 | – | – | 0.06 | 84 | 0.55 | – | – | – | 0.64 | 0.81 | 0.11
B22 | – | – | 0.09 | > 1000 | 7.3 | – | – | – | 0.88 | 0.87 | 0.13
B23 | – | – | 0.11 | 73 | 3.2 | – | – | – | 1.29 | 1.58 | 0.14
B24 | – | – | 0.05 | 345 | 1.1 | – | – | – | 0.24 | 0.3 | 0.36
B25 | – | – | 0.02 | > 400 | 5.5 | – | – | – | 0.99 | 2.25 | –
B26 | – | – | 0.13 | > 1000 | 3.4 | – | – | – | 0.79 | 0.97 | 0.27
